Target: HA-ZFP-5475-KOX1 (Artificial)
Experiment: ChIP with anti-HA in HEK293 cells, relative to GAPDH control; GFP-KOX and non-specific ZFP TF gave no significant enrichment
Description: FIG. 2A is a graph depicting repression of CHK2 expression by ZFP-5475 in cultured cells. Black bars show mRNA levels upon administration of 250 ng of plasmid. Gray bars shown mRNA levels upon administration of 62.5 ng of plasmid and the white bars show mRNA levels upon administration of 15 ng of plasmid. HEK293 cells transfected with the plasmids indicated were assayed for CHK2 mRNA by quantitative RT-PCR (TaqMan) after 72 hrs. The CHK2 mRNA levels were normalized relative to an internal control of GAPDH mRNA, and are expressed as this ratio. Charts represent data from a minimum of two independent experiments, with means and standard deviations shown. Transfection efficiency was assessed in each independent experiment via the use of a GFP expression plasmid control, in all experiments an apparent efficiency of 80-90% GFP positive cells was observed. FIG. 2B is a graph depicting binding of ZFP-5475 to its intended target site within the CHK2 promoter in vivo. […] Enrichment was quantified by RT-PCR Results are expressed as the fold-increase of the ratio to the GAPDH control relative to the results for non-transfected cells, the value of which is arbitrarily set to 1. The same samples were analyzed with primers specific for the p16 locus as a second internal control (open bars). […]

B1: CHK2 promoter ZFP-5475 target site (dsDNA)
DNA 1: ACCCGGGTTCCCCTCGGG
DNA 2: CCCGAGGGGAACCCGGGT
For B1, the binding signal was about 65 fold enrichment.
